This note sets out measurements from publication PMC8344021, “Discovery of Small Molecule Bak Activator for Lung Cancer Therapy” (Theranostics, 2021).

Values joined by “and” are separate entries in the source; they are usually repeats but may differ in a detail not shown here. Equal entries are not always repeated.

By stoichiometry N is commonly meant a count of units in the complex or per binding partner.

The test deals with T1, Bak (endogenous, mitochondria of A549 cells) (human (endogenous in A549)), Q16611.
T1 chain: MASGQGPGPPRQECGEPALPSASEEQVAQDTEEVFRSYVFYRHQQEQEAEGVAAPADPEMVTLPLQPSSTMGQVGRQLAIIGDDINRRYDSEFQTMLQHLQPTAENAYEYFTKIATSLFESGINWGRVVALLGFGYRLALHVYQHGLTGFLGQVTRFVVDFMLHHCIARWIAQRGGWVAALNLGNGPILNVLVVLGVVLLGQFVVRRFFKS
As to the kind of experiment: cross-linking; A549 cells treated with BKA-073 (1 uM) for 24 h; mitochondrial fraction; 10 mM BMH in PBS pH 7.2 with 5 mM EDTA, 1 h at room temperature, quenched with DTT; SDS-PAGE and Western blot with a Bak antibody. The settings on record: remark: other sources report otherwise. Background: A western blot detects proteins with antibodies after separation by electrophoresis.

B1: Bak (endogenous, mitochondria of A549 cells), Q16611 1-211 (natural protein)
chain: T1 chain
Take B1: the stoichiometry N is 2 and 3.
